Source: FireProtDB (doi:10.1016/j.jmb.2009.07.074)

B1: Cytochrome c', P00149 (parent)
chain: MKLRIATIAGLVVLGSGFAVAQTDVIAQRKAILKQMGEATKPIAAMLKGEAKFDQAVVQKSLAAIADDSKKLPALFPADSKTGGDTAALPKIWEDKAKFDDLFAKLAAAATAAQGTIKDEASLKANIGGVLGNCKSCHDDFRAKKS

Variants of: B1
Conditions: Rhodopseudomonas palustris (strain ATCC BAA-98 / CGA009); pH 6.5; 25 °C; GdnHCl; CD; MES 20 mM; NaCl 40 mM; structure 1A7V; whole UniProt chain shown

With MKLRIATIAGLVVLGSGFAVAQTDVIAQRKAILHQMGEATKPIAAMLKGEAKFDQAVVQKSLAAIADDSKKLPALFPADSKTGGDTAALPKIWEDKAKFDDLFAKLAAAATAAQGTIKDEASLKANIGGVLGNCKSCHDDFRAKKS [K34H] the denaturant m value was 4.91 kcal/mol/M, the “denaturant midpoint (higher = more stable)” value (shortened to “denaturant midpoint”) was 1.66 M and the unfolding free energy was 8.17 kcal/mol.

With MKLRIATIAGLVVLGSGFAVAQTDVIAQRKAILKQMGEATKPIAAMLKGEAKFDQAVVQKSLAAIADDSKKLPALFPADSKTGGDTAALPKIWEDKAKFDDLFAKLAAAATHAQGTIKDEASLKANIGGVLGNCKSCHDDFRAKKS [A112H] the denaturant m value was 5.75 kcal/mol/M, the “denaturant midpoint” value was 1.23 M and the unfolding free energy was 7.07 kcal/mol.

With MKLRIATIAGLVVLGSGFAVAQTDVIAQRKAILKQMGEATKPIAAMLKGEAKFDQAVVQKSLAAIADDSKKLPALFPADSKTGGDTAALPKIWEDKAKFDDLFAKLAAAATAAQGTIKDEASLKHNIGGVLGNCKSCHDDFRAKKS [A125H] the denaturant m value was 5.59 kcal/mol/M, the “denaturant midpoint” value was 1.09 M and the unfolding free energy was 6.08 kcal/mol.

In the case of MKLRIATIAGLVVLGSGFAVAQTDVIAQRKAILKQMGEATKPIAAMLKGEAKFDQAVVQKSLAAIADDSKKLPALFPADSKTGGDTHALPKIWEDKAKFDDLFAKLAAAATAAQGTIKDEASLKANIGGVLGNCKSCHDDFRAKKS [A87H], the denaturant m value is reported as 4.88 kcal/mol/M, the “denaturant midpoint” value is reported as 1.39 M and the unfolding free energy is reported as 6.79 kcal/mol.

In the case of MKLRIATIAGLVVLGSGFAVAQTDVIAQRKAILKQMGEATKPIAAMLKGEAKFDQAVVQKSLAAIADDSHKLPALFPADSKTGGDTAALPKIWEDKAKFDDLFAKLAAAATAAQGTIKDEASLKANIGGVLGNCKSCHDDFRAKKS [K70H], the denaturant m value is reported as 4.66 kcal/mol/M, the “denaturant midpoint” value is reported as 1.45 M and the unfolding free energy is reported as 6.75 kcal/mol.

For MKLRIATIAGLVVLGSGFAVAQTDVIAQRKAILKQMGEATKPIAAMLKGEAKFDQAVVQKSLAAIADDSKKLPALFPADSKTGGDTAALPKIWEDKAKFDDLFAHLAAAATAAQGTIKDEASLKANIGGVLGNCKSCHDDFRAKKS [K105H], the denaturant m value was 5.32 kcal/mol/M, the “denaturant midpoint” value was 1.11 M and the unfolding free energy was 5.89 kcal/mol.

In the case of MKLRIATIAGLVVLGSGFAVAQTDVIAQRKAILKQMGEATKPIAAMLKGEAKFDQAVVQKSLAAIADDSKKLPALFPAHSKTGGDTAALPKIWEDKAKFDDLFAKLAAAATAAQGTIKDEASLKANIGGVLGNCKSCHDDFRAKKS [D79H], the denaturant m value is reported as 4.8 kcal/mol/M, the “denaturant midpoint” value is reported as 1.4 M and the unfolding free energy is reported as 6.72 kcal/mol.

In the case of MKLRIATIAGLVVLGSGFAVAQTDVIAQRKAILKQMGEATKPIAAMLKGEAKFDQAVVQKSLAAIADDSKKLPALFPADSKTGGDTAALPKIWEDKAKFDDLFAKLAAAATAAQGTIHDEASLKANIGGVLGNCKSCHDDFRAKKS [K118H], the denaturant m value is reported as 5.28 kcal/mol/M, the “denaturant midpoint” value is reported as 1.29 M and the unfolding free energy is reported as 6.8 kcal/mol.

In the case of MKLRIATIAGLVVLGSGFAVAQTDVIAQRKAILKQMGEATKPIAAMLKGEAKFDQAVVQKSLAAIADDSKKLPALFPADSKTGGDTAALPKIWHDKAKFDDLFAKLAAAATAAQGTIKDEASLKANIGGVLGNCKSCHDDFRAKKS [E94H], the denaturant m value is reported as 5.08 kcal/mol/M, the “denaturant midpoint” value is reported as 1.13 M and the unfolding free energy is reported as 5.76 kcal/mol.

In the case of MKLRIATIAGLVVLGSGFAVAQTHVIAQRKAILKQMGEATKPIAAMLKGEAKFDQAVVQKSLAAIADDSKKLPALFPADSKTGGDTAALPKIWEDKAKFDDLFAKLAAAATAAQGTIKDEASLKANIGGVLGNCKSCHDDFRAKKS [D24H], the denaturant m value is reported as 5.08 kcal/mol/M, the “denaturant midpoint” value is reported as 1.46 M and the unfolding free energy is reported as 7.41 kcal/mol.

With MKLRIATIAGLVVLGSGFAVAQTDVIAQRKAILKQMGEATKPIAAMLKGEAHFDQAVVQKSLAAIADDSKKLPALFPADSKTGGDTAALPKIWEDKAKFDDLFAKLAAAATAAQGTIKDEASLKANIGGVLGNCKSCHDDFRAKKS [K52H] the denaturant m value was 5.04 kcal/mol/M, the “denaturant midpoint” value was 1.47 M and the unfolding free energy was 7.41 kcal/mol.
